# From paper PMC1474074
# Read-outs that look alike come from different tables or passages of the source.
# Columns and labels:
# streptavidin [1] = molecular target: T1, streptavidin (UniProt P22629 25-183); experiment: EMSA
# streptavidin [2] = molecular target: T1, streptavidin; experiment: EMSA; remark: listed apart in the source
# T1 sequence (P22629 25-183): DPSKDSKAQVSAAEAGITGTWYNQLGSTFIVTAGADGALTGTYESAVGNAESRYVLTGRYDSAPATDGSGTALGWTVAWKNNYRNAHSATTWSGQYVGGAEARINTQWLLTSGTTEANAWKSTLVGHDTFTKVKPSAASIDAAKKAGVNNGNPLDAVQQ
Binder,binding result (streptavidin [1]),binding result (streptavidin [2])
"B-siRNA (anti-lamin A/C) (dsRNA, 5'-biotin on sense strand) RNA 1: GGAACUGGACUUCCAGAAGAACAUCUA RNA 2: UAGAUGUUCUUCUGGAAGUCCAGUUCC",binds,
"BSS-siRNA (anti-lamin A/C) (dsRNA, 5'-biotin via C6 S-S disulfide linker on sense strand) RNA 1: GGAACUGGACUUCCAGAAGAACAUCUA RNA 2: UAGAUGUUCUUCUGGAAGUCCAGUUCC",,binds
